2 molecules from PMC4393304, “Cloning and Characterization of Three Eimeria tenella Lipid Phosphate Phosphatases” (PLoS ONE, 2015) can be followed below.

In one data set the target is T1, EtLPP1 (Eimeria tenella, UniProt A0A0A7H6F4).
T1 construct: full-length, 347 residues, calculated Mr 38239; His6-tagged (pcDNA3.1/His), transient in HEK293 cells, membrane fraction, Ni-NTA purified; bands 40 and 42 kDa, monomer
T1 sequence (A0A0A7H6F4 1-346): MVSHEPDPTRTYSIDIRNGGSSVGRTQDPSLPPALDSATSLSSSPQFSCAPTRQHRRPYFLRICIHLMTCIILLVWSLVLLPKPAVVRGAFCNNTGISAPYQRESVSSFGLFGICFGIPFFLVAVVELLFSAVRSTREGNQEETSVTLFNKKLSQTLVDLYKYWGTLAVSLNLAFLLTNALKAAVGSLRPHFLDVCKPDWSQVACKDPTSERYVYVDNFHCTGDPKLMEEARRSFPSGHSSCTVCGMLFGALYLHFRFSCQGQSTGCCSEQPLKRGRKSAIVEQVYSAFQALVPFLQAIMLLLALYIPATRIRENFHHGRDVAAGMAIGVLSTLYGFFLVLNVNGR
The data set can be described thus: PiPer phosphate-release fluorescence assay. The following applies: pH 6.5, 37°C, Triton X-100 mixed micelles, 1 mg/ml fatty-acid free BSA, Mg2+-independent. The class given is biochemical. From the text:
(§1) PiPer phosphate-release fluorescence assay on EtLPP1

Substrate in data set [1]: CCCCCCCCCCCCC/C=C/[C@@H](O)[C@@H](N)COP(=O)(O)O
The data set can be described thus: PiPer phosphate-release fluorescence assay. In kind it is biochemical, Eimeria tenella. The following applies: pH 6.5, 37°C, Triton X-100 mixed micelles, 1 mg/ml fatty-acid free BSA, Mg2+-independent.
Excerpt: as §1

One may read the Km as the substrate concentration at which the rate is half of its maximum. As for LPA, the Km on EtLPP1 stood at 46 ± 9 µM.

B1: EtLPP1 (Eimeria tenella) (protein)
chain: MVSHEPDPTRTYSIDIRNGGSSVGRTQDPSLPPALDSATSLSSSPQFSCAPTRQHRRPYFLRICIHLMTCIILLVWSLVLLPKPAVVRGAFCNNTGISAPYQRESVSSFGLFGICFGIPFFLVAVVELLFSAVRSTREGNQEETSVTLFNKKLSQTLVDLYKYWGTLAVSLNLAFLLTNALKAAVGSLRPHFLDVCKPDWSQVACKDPTSERYVYVDNFHCTGDPKLMEEARRSFPSGHSSCTVCGMLFGALYLHFRFSCQGQSTGCCSEQPLKRGRKSAIVEQVYSAFQALVPFLQAIMLLLALYIPATRIRENFHHGRDVAAGMAIGVLSTLYGFFLVLNVNGR
notes: full-length, 347 residues, calculated Mr 38239; His6-tagged (pcDNA3.1/His), transient in HEK293 cells, membrane fraction, Ni-NTA purified; bands 40 and 42 kDa, monomer
Usually Vmax stands for the rate approached at saturating substrate. B1: in data set [1], the Km worked out at 22 ± 6 µM and the Vmax turned out to be 0.00015 µmol/min/mg.
